Numbering of substitutions follows the chain as printed.
Tests used:
MBP-fused CMD1 = target: T1, MBP-fused CMD1 (Chlamydomonas reinhardtii, UniProt A0A2K3D5Z7); assay: X-ray crystal structure, crystals soaked with sodium L-ascorbate; type: binding; conditions: Fe2+ in active site; pH 5.0-5.6 citrate; 400 mM soak; binary complex 7CY5 (2.20 A) and ternary complex with 5mC-DNA 7CY8 (2.40 A); lactone form, monodentate via C2-hydroxyl
T1 construct: full-length CMD1 with N-terminal MBP via alpha-helical linker and C-terminal His6, tags kept; expressed in E. coli; residues 509-532 disordered in apo crystal, C-terminal region partly degraded in crystals

CMD1 [1] = target: T2, CMD1 (UniProt A0A2K3D5Z7 1-532); assay: BLI; range over six structured DNAs; BLI: 20 mM Tris-HCl pH 8.0, 50 mM NaCl, 0.1% Tween-20, 0.5% BSA, 25 C; biotin-DNA on streptavidin sensors, 1:1 fit; conditions: protein: recombinant, tags: His6-SUMO, cleaved with ULP1, label: 5'-biotin
CMD1 [2] = target: T2, CMD1; assay: BLI; range over dsDNA5-6; BLI: 20 mM Tris-HCl pH 8.0, 50 mM NaCl, 0.1% Tween-20, 0.5% BSA, 25 C; biotin-DNA on streptavidin sensors, 1:1 fit; conditions: protein: recombinant; tags: His6-SUMO, cleaved with ULP1; label: 5'-biotin
CMD1 [3] = target: T2, CMD1; assay: BLI; range over dsDNA1-4; BLI: 20 mM Tris-HCl pH 8.0, 50 mM NaCl, 0.1% Tween-20, 0.5% BSA, 25 C; biotin-DNA on streptavidin sensors, 1:1 fit; conditions: protein: recombinant; tags: His6-SUMO, cleaved with ULP1; label: 5'-biotin
CMD1 [4] = target: T2, CMD1; assay: BLI; BLI: 20 mM Tris-HCl pH 8.0, 50 mM NaCl, 0.1% Tween-20, 0.5% BSA, 25 C; biotin-DNA on streptavidin sensors, 1:1 fit; conditions: protein: recombinant, tags: His6-SUMO, cleaved with ULP1, label: 5'-biotin
MBP-CMD1 [5] = target: T3, MBP-CMD1 (UniProt A0A2K3D5Z7 1-532); assay: crystal structure; Fe2+; BLI: 20 mM Tris-HCl pH 8.0, 50 mM NaCl, 0.1% Tween-20, 0.5% BSA, 25 C; biotin-DNA on streptavidin sensors, 1:1 fit; conditions: protein: recombinant; tags: N-terminal MBP via alpha-helical linker; C-terminal His6; 10 bp palindromic duplex, 3' overhang 4 nt on both strands
MBP-CMD1 [6] = target: T3, MBP-CMD1; assay: BLI; BLI: 20 mM Tris-HCl pH 8.0, 50 mM NaCl, 0.1% Tween-20, 0.5% BSA, 25 C; biotin-DNA on streptavidin sensors, 1:1 fit; conditions: protein: recombinant; tags: N-terminal MBP via alpha-helical linker; C-terminal His6; label: 5'-biotin; 10 bp palindromic duplex, 3' overhang 4 nt on both strands
CMD1 [7] = target: T2, CMD1; assay: BLI; range over dsDNA7-9; BLI: 20 mM Tris-HCl pH 8.0, 50 mM NaCl, 0.1% Tween-20, 0.5% BSA, 25 C; biotin-DNA on streptavidin sensors, 1:1 fit; conditions: protein: recombinant; tags: His6-SUMO, cleaved with ULP1; label: 5'-biotin

T2 sequence (A0A2K3D5Z7 whole entry): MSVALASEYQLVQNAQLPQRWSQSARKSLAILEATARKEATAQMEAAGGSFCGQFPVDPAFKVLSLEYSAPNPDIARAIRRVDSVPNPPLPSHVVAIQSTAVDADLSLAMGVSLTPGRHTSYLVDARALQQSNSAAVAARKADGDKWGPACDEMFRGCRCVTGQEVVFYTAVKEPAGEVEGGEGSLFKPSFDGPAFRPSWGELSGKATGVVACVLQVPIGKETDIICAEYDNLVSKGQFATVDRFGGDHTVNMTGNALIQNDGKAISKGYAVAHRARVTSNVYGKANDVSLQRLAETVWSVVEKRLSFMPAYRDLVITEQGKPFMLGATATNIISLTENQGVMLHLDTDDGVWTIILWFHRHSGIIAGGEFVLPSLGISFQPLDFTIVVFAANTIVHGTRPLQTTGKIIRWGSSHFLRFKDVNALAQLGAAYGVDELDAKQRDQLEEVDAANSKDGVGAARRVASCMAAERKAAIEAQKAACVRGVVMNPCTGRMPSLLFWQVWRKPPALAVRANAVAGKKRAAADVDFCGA
T3 sequence (A0A2K3D5Z7 whole entry): as above
T1 sequence (A0A2K3D5Z7 whole entry, the tested form may be a part): as the sequence (A0A2K3D5Z7 whole entry) above

O=C1O[C@H]([C@@H](O)CO)C(O)=C1O [VC]
X-ray crystal structure, crystals soaked with sodium L-ascorbate (MBP-fused CMD1): crystals of CMD1 in complex with VC were obtained by soaking the apo CMD1 crystals

B1: Y-DNA (structured_DNA)
DNA 1: GCTTTAACTTACATAAATGCCAATATAGTATGCGTATTGC
DNA 2: TACCGCATACGCCTATATTGGCATTTATGTAAGTTAAAGC
Kd (CMD1 [1]; fork): ~1.38 µM

B2: dsDNA5 (40 bp, 5mC) (dsDNA)
DNA 1: B1 DNA 1
DNA 2: GCAATACGCATACTATATTGGCATTTATGTAAGTTAAAGC
modifications: one or two 5mC
Kd (CMD1 [2]): ~2.4 µM

B3: 3'-flap DNA (structured_DNA)
DNA 1: B1 DNA 1
DNA 2: B1 DNA 2
DNA 3: GCGTATGCGGTA
Kd (CMD1 [1]; 3' flap): ~1.38 µM

B4: dsDNA1 (40 bp, AT-rich) (dsDNA)
DNA 1: B1 DNA 1
DNA 2: B2 DNA 2
Kd (CMD1 [3]): ~2.22 µM

B5: 5'-flap DNA (structured_DNA)
DNA 1: B1 DNA 1
DNA 2: B1 DNA 2
DNA 3: GCAATACGCATA
Kd (CMD1 [1]; 5' flap): ~1.38 µM

B6: dsDNA6 (40 bp, 5mC) (dsDNA)
DNA 1: B1 DNA 1
DNA 2: B2 DNA 2
modifications: one or two 5mC
Kd (CMD1 [2]): ~2.4 µM

B7: ssDNA (40 nt) (ssDNA)
DNA: TTTTTTCTTTTTTCTTTTTTCTTTTTTCTTTTTTCTTTTT
Kd (CMD1 [4]): 2.77 µM

B8: dsDNA4 (40 bp, GC-rich) (dsDNA)
DNA 1: GACATCGGCGCGGGGTTCAGCCCCGGCCGTATTGGGGCTC
DNA 2: GAGCCCCAATACGGCCGGGGCTGAACCCCGCGCCGATGTC
Kd (CMD1 [3]): ~2.22 µM

B9: 14-nt DNA (crystal), unmodified (dsDNA)
DNA 1: CCCGCGCGGGATGT
DNA 2: CCCGCGCGGGATGT
binding result (MBP-CMD1 [5]): binds

B10: dsDNA2 (40 bp, AT-rich) (dsDNA)
DNA 1: ATACTTACGAATCTGAACTTAGATCCTAATATACATTCTA
DNA 2: TAGAATGTATATTAGGATCTAAGTTCAGATTCGTAAGTAT
Kd (CMD1 [3]): ~2.22 µM

B11: 14-nt 5mC-DNA (BLI) (dsDNA)
DNA 1: CCCGCGCGGGATGT
DNA 2: CCCGCGCGGGATGT
modifications: 5mC at position 3 of both strands
Kd (MBP-CMD1 [6]): 0.81 ± 0.03 µM
Kd (CMD1 [4]; 10 bp palindromic duplex, 3' overhang 4 nt on both strands): 2.01 ± 0.11 µM

B12: dsDNA3 (40 bp, GC-rich) (dsDNA)
DNA 1: GCTGGCCCTGACATGGGTGCCAGCGTAGTGCGCGTAGCGC
DNA 2: GCGCTACGCGCACTACGCTGGCACCCATGTCAGGGCCAGC
Kd (CMD1 [3]): ~2.22 µM

B13: bubble DNA (structured_DNA)
DNA 1: GCTTTAACTTACATACCCCCCCCCCTAGTATGCGTATTGC
DNA 2: B2 DNA 2 with A17T, G20T, G21T, C22T, A23T
Kd (CMD1 [1]; bubble): ~1.38 µM

B14: dsDNA8 (10-30 bp) (dsDNA)
DNA 1: ACTTACTGCCAATATAGTAT
DNA 2: ATACTATATTGGCAGTAAGT
Kd (CMD1 [7]): ~1.93 µM

B15: dsDNA9 (10-30 bp) (dsDNA)
DNA 1: AACTTACATAAATGCCAATATAGTATGCGT
DNA 2: ACGCATACTATATTGGCATTTATGTAAGTT
Kd (CMD1 [7]): ~1.93 µM

Reference: PMC7854593, “Molecular mechanism for vitamin C-derived C^5-glyceryl-methylcytosine DNA modification catalyzed by algal TET homologue CMD1” (Nature Communications, 2021)
